Reference: the DeepSol protein solubility set

Assay: soluble on expression in E. coli; label from the status in PepcDB or PDB records
In the case of “MGSDKIHHHHHHMKSAPDWIAHPDTPYLLIDEAKLKSNINYLKQRVESLGSHLRPHLKTLRTLEAAGYLLDSKSAPATVSTLAEAEAYAKAGYTDLLYAVGIAPAKLKRVAALRQQGINLHILLDNITQAQAVVDYAAEFGQDFSVFIEIDSDDHRGGIKPSDSKLLTIAKTLGEHFTGLMTHAGGSYACNTEQGLKNFAKQECDAVRIARNNLETAGIHCAITSVGSTPTAHFGEDFSDISEVRAGVYTTFDLVMKNIGVCDFSHIAMSVVTTVIGHNKEKNWLLTDSGWMALSRDSGTAGQNRDFGYGQVCKIDGSVLDGLCVNSTSQEHGVIELSDAYQLEDFPVGHQLRIMPNHACATAAMHPVYHVLMSDGSHNTWQRITGW”, the “soluble on expression in E. coli” value is reported as “not soluble”.
In the case of “MNQPDISTLVQRIEQLELNQSRLRILLSHAPEKHKAFDKACYVANLSFEQEAHVRQTILDFLDSDKEDINELLSSIEAIVRYTVDAKSLISGFKMRGTAPDRWKQIDPHNEC”, the “soluble on expression in E. coli” value is reported as “not soluble”.
In the case of “MLNNAMSVVILAAGKGTRMYSDLPKVLHTLAGKAMVQHVIDAANELGAAHVHLVYGHGGDLLKQALKDDNLNWVLQAEQLGTGHAMQQAAPFFADDEDILMLYGDVPLISVETLQRLRDAKPQGGIGLLTVKLDDPTGYGRITRENGKVTGIVEHKDATDEQRQIQEINTGILIANGADMKRWLAKLTNNNAQGEYYITDIIALAYQEGREIVAVHPQRLSEVEGVNNRLQLSRLERVYQSEQAEKLLLAGVMLRDPARFDLRGTLTHGRDVEIDTNVIIEGNVTLGHRVKIGTGCVIKNSVIGDDCEISPYTVVEDANLAAACTIGPFARLRPGAELLEGAHVGNFVEMKKARLGKGSKAGHLTYLGDAEIGDNVNIGAGTITCNYDGANKFKTIIGDDVFVGSDTQLVAPVTVGKGATIAAGTTVTRNVGENALAISRVPQTQKEGWRRPVKKK”, the “soluble on expression in E. coli” value is reported as “soluble”.
With “MSYGLIIVLMIILGIGLWHTKKYHRAVVNQVAHVWITKNAFEHTALGMAIVSPDCRFLKVNRAYGEITGYTRPELLKMAVKELTHPEDQEKDTPYLQEVFAGNIHSFTTVKRYIHKNGSTIWVRSTISAVRTERGNLEHHHHHH” the “soluble on expression in E. coli” value was “soluble”.
In the case of “GSEQKKRRLEEGTRANSVAESSPPFPLRSKTSVGSTNSQITETKNKQGVYPITESNLRILEGEDRSEKAKELLKKYVSNVFENEKTLYIYCKYVMLHYGKDLVNPNEVDSLEFQIINGGITNILIKVKDMSKQAKYLIRLYGPKTDEIINREREKKISCILYNKNIAKKIYVFFTNGRIEEFMDGYALSREDIKNPKFQKLIAKNLKLLHDIKLNENLYKELQVTQKVPGTRPSFLWNTIWKYFHLLNEERKKICSFDAKANILKLIDFDVLRDSIVEVESLCKRENSPIVLCHCDLLSSNIINTVGGGEAGELGEAGETGEGGETGEGGETGEGGETGEGGEGDSISFIDFEYSCPMERAYDIANHFNEYAGFNCDWDLTPSKEEEYHFIMHYLGTDDEELINQLIREIQPFYICSHINWGLWSLLQGMHSSIDFDFINYGMTRLTASCLPIFRSKV”, the “soluble on expression in E. coli” value is reported as “soluble”.
For “MSLGKEEEYRITNVKIFKDTPVWELALAVKNEKTRTIEKLAKENPELLNYQEPKYGATLLLWAVGMEKYKSAEALLKCGADPNIASTVDGMTPLYLAAGFSWIDNYAKKDPKFVKLLLKYNADPNITYGGNAIIEPGTSPLMNSIRCGIEKTKALVEAGAYINYKTKSGTTAAIKALLAGQNATLEALEYAHYLIVEKKAKVTDPYYPWLVYEENNIQELYPVDILRRWVYPLDSEEYRIKMEIVEEFARQGVNYWDTEIDKYTLEQIKKLYPDTWEEYIKRYEGHHHHHH”, the “soluble on expression in E. coli” value was “soluble”.
For “MVLEGIHSHDPQARDIAIQYYHAAETTIYDYIARRHPQSAQCVTDFMSTVMSGLSAKAREGHSIEQLCATAALAGEAIKTLLKE”, the “soluble on expression in E. coli” value was “not soluble”.
With “NPTEQLLTRFNQAAQGDTGLVDTVHDELSQLVQKQGATPVTLVYLGSSETLQGRDAFMPWNKMKFTERGLATIQKGLDLMANQPMPIQEQQRLQGLPEYQ” the “soluble on expression in E. coli” value was “not soluble”.
In the case of “MAHHHHHHMNASGATASEGKNPPRDARTVSFHPESTFHEQHNAASQRFSHTSEPGWESRESNSGYAAQDGGDTANEGIRRSYYKRLYRFYRKYNPQKLCNVEKLLRECRGEEEQLFAILVGKYGPEPEEESSMLSGDCVFSSAGDSVMHYSGKRCQFPKKVKPEEGNTDCETPYWAGASSLIGDRDLLSLLQNLETPNVELQKCYMGVFAEHPTDCWNGMAYITRAEGIAPANTKFLGHTWVGTLGSGKVLVHEGKKFHRTTLYCTEECQKRGNHERWRLSVYRGEVSYLILLRTVWDPVVVPEPLPLNRSNLSEREVHSSLDGFPTRLSSMSSADSGGSGSRQPIQPPQPQQHTVTPAFVQFTKLLEELESRIIERLEGLERRMSRLENM”, the “soluble on expression in E. coli” value is reported as “not soluble”.
With “MSKIARKDVERLIELVGGPDNIASVSHCLTRLRFVLNDTDKADTKQLEALRMVKGCFTNAGQFQVVIGTEVDEVYKVLIELSGKSEASKDESKNAARQNMNIVERGISHLAE” the “soluble on expression in E. coli” value was “not soluble”.
With “TSSLSYWQGEAFRRGFDSRGRFDDVLKILLLLDAAQKEGKALPVQEFRRHINMGYDELGELLEKLARHGYIYSGRQGWVLKTGADSIELNELFKLFVYRPLPVERDHVNQAVDAVMTPCLQTLNMTLAEFDAQAKKRQ” the “soluble on expression in E. coli” value was “not soluble”.
With “MENSIEAYLADSREKVTLGTVVDCFKGKAVSSKVVPGDVGLINLSDMGTLGIQYHQLRTFQMDRRQLLRYLLEDGDVLIASKGTLKKVCVFHKQNRDVVASSNITVLRPQKLLRGYYIKFFLDSPIGQALLDVADHGKDVINLSTKELLDIPIPVIPLVKQDYLINHYLRGLTDYHRKLNRAEQEWEYIQNEIQKGLG” the “soluble on expression in E. coli” value was “soluble”.
With “MGSDKIHHHHHHMARTNPHRPFVPDPEQAALAPGVSGNDINGLGETAFRRPRMVYWAPDPDDIPHGSLQRYFYRQSAKEPDFASRRAARQAVLDAPLPLLADTVVIRDPADWTAALTQFVDSGLCDLTGVAEMNPDWVFEGHEIPQSRVIMIGVAHDYNVIATAPKPSAGLEVMTQYTRAAQAAKTIAGWLRQQGWQAEPLTGPMTGALAMIPPALACGFGELGKHGSIINPDLGASFRLSAVLSDAPFAPTPAQDHGIDGFCQNCHICQDACPPEALFAQKQTVRGARKWYVDFDKCLPFFNQTHGCAICIAECPWSRPGIGPNLAAKLARKRNRDATG” the “soluble on expression in E. coli” value was “not soluble”.
In the case of “YPNASPLLGSSWGGLIHLYTATARNSYHLQIHKNGHVDGAPHQTIYSALMIRSEDAGFVVITGVMSRRYLCMDFRGNIFGSHYFDPENCRFQHQTLENGYDVYHSPQYHFLVSLGRAKRAFLPGMNPPPYSQFLSRRNEIPLIHFNTPIPRRHTR”, the “soluble on expression in E. coli” value is reported as “soluble”.
For “SLKIKHEHIESVLLALAAEKGQAWVANAITEEYLRQGGGELPLVPGKDWNNQQNIYHRWLKGETNAQREKIQKLIPAVLAILPRELRHRLCIFDTLERRALLAAQDALSTAIDAHDDAVQAVYRKAHFSGGGSPSDSVVVH”, the “soluble on expression in E. coli” value was “soluble”.
In the case of “GFGPHQRLEKLDSLLSDYDILSLSNIQQHSVRKRDLQTSTHVETLLTFSALKRHFKLYLTSSTERFSQNFKVVVVDGKNESEYTVKWQDFFTGHVVGEPDSRVLAHIRDDDVIIRINTDGAEYNIEPLWRFVNDTKDKRMLVYKSEDIKNVSRLQSPKVCGYLKVDNEELLPKGLVDREPPEGKT”, the “soluble on expression in E. coli” value is reported as “not soluble”.
For “MSLVDQIKSYVAMRKYSIKRDEHGIVRLQLNNKDLFQFGPLDQGWWPDGLYTAPTDEALRYDIEKTKDFGFNMIRKHIKVEPARWYTYCDQIGLIVWQDMPSGDKSPEWQNRKYFEGTELTRSAESEETYRKEWKEVIDCLYSYPCIGTWVPFNEAWGQFKTQEIAEWTKQYDPSRLVNPASGGNHYTCGDMLDLHHYPGPEMFLYDAQRATVLGEYGGIGLVLKDHLWEPNRNWGYIQFNTSAEATAEYLKYAGILKDMISRGFSAAVYTQTTDVEVEVNGLMTYDRKVIKLDESKLKKMNTEICNSLKEGHHHHHH”, the “soluble on expression in E. coli” value was “not soluble”.
In the case of “MDTTIGVIGNKVVHVIKENDSVKTAAEEMKKHNLGALVVIDDNDKIVGIITERDIVKVVAEGKLDAKVKDYMTRNVIGVTEDTPITDALEIMLDHGFRHLPIIGKDGKVIGIVSIRDLSKAILDPHFFQFKKEAADVKGSGYVCPVCGMEIDEYGYCGCGAGSG”, the “soluble on expression in E. coli” value is reported as “soluble”.
